Results from IntAct's records for PubMed 18354501.

B1: General transcription factor IIE subunit 1 (Homo sapiens), P29083 (parent)
chain: MADPDVLTEVPAALKRLAKYVIRGFYGIEHALALDILIRNSCVKEEDMLELLKFDRKQLRSVLNNLKGDKFIKCRMRVETAADGKTTRHNYYFINYRTLVNVVKYKLDHMRRRIETDERDSTNRASFKCPVCSSTFTDLEANQLFDPMTGTFRCTFCHTEVEEDESAMPKKDARTLLARFNEQIEPIYALLRETEDVNLAYEILEPEPTEIPALKQSKDHAATTAGAASLAGGHHREAWATKGPSYEDLYTQNVVINMDDQEDLHRASLEGKSAKERPIWLRESTVQGAYGSEDMKEGGIDMDAFQEREEGHAGPDDNEEVMRALLIHEKKTSSAMAGSVGAAAPVTAANGSDSESETSESDDDSPPRPAAVAVHKREEDEEEDDEFEEVADDPIVMVAGRPFSYSEVSQRPELVAQMTPEEKEAYIAMGQRMFEDLFE

Variants of: B1
Settings: with tf2h1_human GTF2H1, P32780
Sequence of tf2h1_human GTF2H1, P32780 (P32780 whole entry): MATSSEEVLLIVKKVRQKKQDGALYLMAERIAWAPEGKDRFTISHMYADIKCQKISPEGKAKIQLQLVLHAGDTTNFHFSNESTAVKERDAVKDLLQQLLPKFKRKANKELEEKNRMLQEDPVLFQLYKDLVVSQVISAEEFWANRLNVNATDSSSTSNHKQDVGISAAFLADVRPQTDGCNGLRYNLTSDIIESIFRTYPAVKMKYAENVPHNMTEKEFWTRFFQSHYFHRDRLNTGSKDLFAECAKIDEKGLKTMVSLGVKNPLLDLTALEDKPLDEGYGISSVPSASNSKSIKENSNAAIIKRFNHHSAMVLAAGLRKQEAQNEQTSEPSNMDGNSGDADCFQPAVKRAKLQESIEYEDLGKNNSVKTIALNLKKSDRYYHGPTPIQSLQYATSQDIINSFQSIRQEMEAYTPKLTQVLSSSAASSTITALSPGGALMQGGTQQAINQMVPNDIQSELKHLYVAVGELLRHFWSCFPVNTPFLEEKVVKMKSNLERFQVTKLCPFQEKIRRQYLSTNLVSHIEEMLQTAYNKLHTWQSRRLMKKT

| Variant | effect of a mutation on the interaction |
| --- | --- |
| MADPDVLTEVPAALKRLAKYVIRGFYGIEHALALDILIRNSCVKEEDMLELLKFDRKQLRSVLNNLKGDKFIKCRMRVETAADGKTTRHNYYFINYRTLVNVVKYKLDHMRRRIETDERDSTNRASFKCPVCSSTFTDLEANQLFDPMTGTFRCTFCHTEVEEDESAMPKKDARTLLARFNEQIEPIYALLRETEDVNLAYEILEPEPTEIPALKQSKDHAATTAGAASLAGGHHREAWATKGPSYEDLYTQNVVINMDDQEDLHRASLEGKSAKERPIWLRESTVQGAYGSEDMKEGGIDMDAFQEREEGHAGPDDNEEVMRALLIHEKKTSSAMAGSVGAAAPVTAANGSDSESETSESDDDSPPRPAAVAVHKREEDEEEDDEFEEAADDPIVMVAGRPFSYSEVSQRPELVAQMTPEEKEAYIAMGQRMFEDLFE [V390A] | disrupting interaction |

Variants of: B1
Settings: with tf2h1_human GTF2H1, P32780
Remark: another data set of the same source

| Variant | effect of a mutation on the interaction |
| --- | --- |
| MADPDVLTEVPAALKRLAKYVIRGFYGIEHALALDILIRNSCVKEEDMLELLKFDRKQLRSVLNNLKGDKFIKCRMRVETAADGKTTRHNYYFINYRTLVNVVKYKLDHMRRRIETDERDSTNRASFKCPVCSSTFTDLEANQLFDPMTGTFRCTFCHTEVEEDESAMPKKDARTLLARFNEQIEPIYALLRETEDVNLAYEILEPEPTEIPALKQSKDHAATTAGAASLAGGHHREAWATKGPSYEDLYTQNVVINMDDQEDLHRASLEGKSAKERPIWLRESTVQGAYGSEDMKEGGIDMDAFQEREEGHAGPDDNEEVMRALLIHEKKTSSAMAGSVGAAAPVTAANGSDSESETSESDDDSPPRPAAVAVHKREEDEEEDDEAEEVADDPIVMVAGRPFSYSEVSQRPELVAQMTPEEKEAYIAMGQRMFEDLFE [F387A] | disrupting interaction |
